According to paper PMC5651818, “VPS18 recruits VPS41 to the human HOPS complex via a RING–RING interaction” (Biochemical Journal, 2017):

Target: T1, His-tagged VPS18 RING domain (residues 842–973) (human, UniProt Q9P253 842-973)
T1 construct: Vector pOPTnH; monomeric by SEC-MALS; also called VPS18 RING H6; VPS18H6; source: E. coli Rosetta2(DE3) pLysS, purified (Ni-NTA, SEC); not shown: LysHis6, C-terminal, kept
T1 sequence (looked up): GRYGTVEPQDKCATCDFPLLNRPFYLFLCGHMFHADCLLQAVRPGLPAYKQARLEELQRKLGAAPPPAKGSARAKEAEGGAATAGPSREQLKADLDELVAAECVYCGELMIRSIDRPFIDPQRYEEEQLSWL
Experiment: SEC-MALS; Superdex 75 10/300, room temperature, 20 mM Tris (pH 7.5), 150 mM NaCl, 0.5 mM EDTA; complex formed from 0.48 mg/ml VPS41 RING and 0.68 mg/ml VPS18 RING H6 on ice for 15 min
Details: both partners purified

B1: tag-free VPS41 RING domain (residues 778–854) (domain or fragment, human, UniProt P49754 778-854, looked up)
chain: TQMKGVLVDEENICESCLSPILPSDAAKPFSVVVFHCRHMFHKECLPMPSMNSAAQFCNICSAKNRGPGSAILEMKK
notes: monomeric by SEC-MALS; also called untagged VPS41 RING; not shown: GST, N-terminal, cleaved
stoichiometry N: 1
